For test [1], the target named is T1, CD47 on cells (Daudi cells; human red blood cells) (human, UniProt Q08722 19-323).
T1 construct: whole, on cells; These cells also carry CD38
Kind of test: blocking of SIRPα-mIgG1 Fc binding to CD47 on Daudi cells, image-based readout with anti-mouse IgG Fc Alexa Fluor 647, % inhibition; the sheet calls the half-maximal value EC50.

For test [2], the target named is T2, CD38 on cells (Daudi, Raji, KMS-12-PE, NCI-H929, KMS-12-BM) (human, UniProt P28907).
T2 construct: full-length, cell surface; These cells also carry CD47
Kind of test: flow cytometry on NCI-H929 cells (carry CD38 and CD47), anti-human IgG-Fc PE, GeoMFI; apparent whole-cell value, the anti-CD47 arm also binds. (A flow cytometer gives signals particle by particle.)

Test [3] addresses T3, Avi-Tagged FcRn (Acrobiosystems, FCM-H82W2) (human, UniProt P55899 24-297, biotinylated (captured with Biotin CAPture kit)).
T3 construct: also called human neonatal Fc receptor
Kind of test: SPR steady state, FcRn captured on CAP chip, antibody analyte; reference trastuzumab control IgG1.

In test [4] the target is T2, CD38 on cells (Daudi, Raji, KMS-12-PE, …). As to the kind of experiment: flow cytometry on Raji cells (carry CD38 and CD47), anti-human IgG-Fc PE, GeoMFI; apparent whole-cell value, the anti-CD47 arm also binds.
For test [5], the target named is T4, human FcγR2a-ECD-His (human, UniProt P12318 34-208).
T4 construct: His-tagged fusion made in house (UniProt P12318); The SPR method names only 'Fc-receptors IIa, IIb, and IIIa'; also called FcγRIIa; Fc-receptor IIa
T4 chain: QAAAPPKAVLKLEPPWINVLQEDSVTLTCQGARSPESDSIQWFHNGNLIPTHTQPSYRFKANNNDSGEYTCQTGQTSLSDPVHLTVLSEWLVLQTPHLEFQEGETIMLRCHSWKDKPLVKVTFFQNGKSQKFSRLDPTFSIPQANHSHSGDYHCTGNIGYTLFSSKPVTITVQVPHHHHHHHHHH
Kind of test: SPR steady state, antibody on protein G chip, receptor analyte; reference trastuzumab control IgG1.

For test [6], the target named is T5, human FcγR2b-ECD-His (human, UniProt P31994 46-217).
T5 construct: His-tagged fusion made in house (UniProt P31994); also called FcγRIIb; Fc-receptor IIb
T5 sequence: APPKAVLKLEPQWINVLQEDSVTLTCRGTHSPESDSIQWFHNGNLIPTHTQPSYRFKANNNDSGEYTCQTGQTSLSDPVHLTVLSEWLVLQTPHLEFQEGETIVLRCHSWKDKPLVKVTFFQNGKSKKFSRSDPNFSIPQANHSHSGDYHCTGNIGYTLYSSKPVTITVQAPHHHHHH
The description is as above.

Test [7] has as its target T6, human FcγR3a-ECD-His (human, UniProt P08637 17-193).
T6 construct: His-tagged fusion made in house (UniProt P08637); also called FcγRIIIa; Fc-receptor IIIa
The description is as above.

Test [8] addresses T2, CD38 on cells (Daudi, Raji, KMS-12-PE, …). Kind of test: flow cytometry on KMS-12-BM cells (carry CD38 and CD47), anti-human IgG-Fc PE, GeoMFI; apparent whole-cell value, the anti-CD47 arm also binds.
The target is the same in test [9]. Kind of test: flow cytometry on Daudi cells (carry CD38 and CD47), anti-human IgG-Fc PE, GeoMFI; apparent whole-cell value, the anti-CD47 arm also binds.
For test [10] the target is unchanged. As to the kind of experiment: flow cytometry on KMS-12-PE cells (carry CD38 and CD47), anti-human IgG-Fc PE, GeoMFI; apparent whole-cell value, the anti-CD47 arm also binds.
Test [11] has as its target T7, Avi-Tagged FcγRIa (Acrobiosystems, FCA-H82E8) (UniProt P12314 16-288, biotinylated (captured with Biotin CAPture kit)). As to the kind of experiment: SPR, FcγRIa captured on CAP chip, antibody analyte; reference trastuzumab control IgG1. Background: Surface plasmon resonance follows binding to a sensor surface in real time, without labels.
For test [12], the target named is T4, human FcγR2a-ECD-His. Kind of test: SPR steady state, antibody on protein G chip, receptor analyte; reference trastuzumab control IgG1.
The target of test [13] is T5, human FcγR2b-ECD-His. Described as above. This is another data set of the same source.
Test [14] deals with T6, human FcγR3a-ECD-His. Described as above. The source holds these as a separate data set.
The target in test [15] is T7, Avi-Tagged FcγRIa (Acrobiosystems, …). Kind of test: SPR, FcγRIa captured on CAP chip, antibody analyte; reference trastuzumab control IgG1. This is another data set of the same source.

Substitutions are numbered along the chain they refer to. Numbers in names are those of the source. Like-named read-outs stand apart in the source and are kept apart here.

B1: BEAT CD38/CD47-48 (bispecific antibody, human IgG1, kappa)
heavy 1: EVQLVESGGGLIQPGGSLRLSCAASGFTLSRNTMHWVRQAPGKGLEWVSVIYQSGVTRYADSVKSRFTISRDNSKNTLYLQMNSLRAEDTAVYYCARGRYGVAGGPGYAFDVWGQGTLVTVSSASTKGPSVFPLAPSSKSTSGGTAALGCLVKDYFPEPVTVSWNSGALTSGVHTFPAVLQSSGLYSLSSVVTVPSSSLGTQTYICNVNHKPSNTKVDKKVEPKSCDKTHTCPPCPAPELLGGPDVFLFPPKPKDTLMISRTPEVTCVVVDVSHEDPEVKFNWYVDGVEVHNAKTKPREEQYNSTYRVVSVLTVLHQDWLNGKEYKCKVNNKALPAPEEKTISKAKGQPREPAVYTLPPSREEMTKNQVKLVCLVTGFYPSDIAVEWESSGQPENNYYTTPPMLDSDGSFSLVSWLNVDKSRWQQGNIFSCSVMHEALHNRFTQKSLSLSPG
heavy 2: not shown
light: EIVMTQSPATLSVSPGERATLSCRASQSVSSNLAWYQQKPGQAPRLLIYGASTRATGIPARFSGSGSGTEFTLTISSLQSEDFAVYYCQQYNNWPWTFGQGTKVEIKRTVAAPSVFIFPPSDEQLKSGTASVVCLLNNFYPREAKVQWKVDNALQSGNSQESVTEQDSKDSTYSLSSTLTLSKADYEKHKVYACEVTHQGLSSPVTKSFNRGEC
notes: 2+1 biparatopic format; the number of light chains follows from the three Fab domains; also called BEAT CD38/47-48; BEAT 38/47-48
With B1, the “IC50 (read off the curve)” value in [1] was around 0.05 nM. Further, the EC50 (read off the curve) (in general, the concentration needed to bring the measured effect to its halfway point) in test [2] was around 20 nM; in test [4], around 10 nM; in test [8], around 30 nM; in test [9], around 8 nM; in test [10] it was around 6 nM. The “KD ratio [BEAT/Control IgG1]” value in test [3] is 0.2 ratio. Further, the “fold gain in affinity vs control” value is 7 fold in test [5], 16 fold in test [6], 10 fold in [7] and 864 fold in [11].

B2: BEAT CD38/CD47-21 (bispecific antibody, human IgG1, kappa)
heavy 1: B1 heavy 1 with D245S, E338I, K340E
heavy 2: QVQLVQSGAEVKKPGSSVKVSCKASGLPDATYAIGWVRQAPGQGLEWMGRIIPRLDAEHYAQKFQGRVTITADESTSTAYMELSSLRSEDTAVYYCARGLGYYLYSSYYFDIWGQGTLVTVSSASTKGPSVFPLAPSSKSTSGGTAALGCLVKDYFPEPVTVSWNSGALTSGVHTFPAVLQSSGLYSLSSVVTVPSSSLGTQTYICNVNHKPSNTKVDKKVEPKSCDKTHTCPPCPAPELLGGPSVFLFPPKPKDTLMISRTPEVTCVVVDVSHEDPEVKFNWYVDGVEVHNAKTKPREEQYNSTYRVVSVLTVLHQDWLNGKEYKCKVNNKALPAPIEETISKAKGQPREPEVATFPPSRDELTKNQVTLVCLVTGFYPSDIAVEWESNGQPENNYKTDPPLLESQGSFALSSRLRVDKSRWQQGNVFSCSVMHEALHNHYTQKSLSLSPG
light: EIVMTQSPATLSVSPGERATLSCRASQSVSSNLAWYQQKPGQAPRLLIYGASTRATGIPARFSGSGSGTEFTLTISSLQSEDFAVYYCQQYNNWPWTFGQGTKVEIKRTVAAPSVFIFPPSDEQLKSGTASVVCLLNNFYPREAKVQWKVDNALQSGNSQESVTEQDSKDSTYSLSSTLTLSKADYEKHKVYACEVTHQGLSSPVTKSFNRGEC
notes: 1+1 format; Fc mutations S324N + K334E in both heavy chains
For the molecule B2, in [3], the “KD ratio [BEAT/Control IgG1]” value amounted to 0.4 ratio. In addition, the “fold gain in affinity vs control” value in test [12] turned out to be 1 fold; in [13] it was 0.1 fold; in test [14] it was 2 fold; in [15], 1030 fold.

B3: BEAT CD38/CD47-32 (bispecific antibody, human IgG1, kappa)
heavy 1: B1 heavy 1 with D245S, E275D, S304A, E338I, E339A
heavy 2: QVQLVQSGAEVKKPGSSVKVSCKASGLPDATYAIGWVRQAPGQGLEWMGRIIPRLDAEHYAQKFQGRVTITADESTSTAYMELSSLRSEDTAVYYCARGLGYYLYSSYYFDIWGQGTLVTVSSASTKGPSVFPLAPSSKSTSGGTAALGCLVKDYFPEPVTVSWNSGALTSGVHTFPAVLQSSGLYSLSSVVTVPSSSLGTQTYICNVNHKPSNTKVDKKVEPKSCGGGGSGGGGSGGGGSQVQLVQSGAEVKKPGSSVKVSCKASGLPDATYAIGWVRQAPGQGLEWMGRIIPRLDAEHYAQKFQGRVTITADESTSTAYMELSSLRSEDTAVYYCARGLGYYLYSSYYFDIWGQGTLVTVSSASTKGPSVFPLAPSSKSTSGGTAALGCLVKDYFPEPVTVSWNSGALTSGVHTFPAVLQSSGLYSLSSVVTVPSSSLGTQTYICNVNHKPSNTKVDKKVEPKSCDKTHTCPPCPAPELLGGPSVFLFPPKPKDTLMISRTPEVTCVVVDVSHDDPEVKFNWYVDGVEVHNAKTKPREEQYNATYRVVSVLTVLHQDWLNGKEYKCKVNNKALPAPIAKTISKAKGQPREPEVATFPPSRDELTKNQVTLVCLVTGFYPSDIAVEWESNGQPENNYKTDPPLLESQGSFALSSRLRVDKSRWQQGNVFSCSVMHEALHNHYTQKSLSLSPG
light: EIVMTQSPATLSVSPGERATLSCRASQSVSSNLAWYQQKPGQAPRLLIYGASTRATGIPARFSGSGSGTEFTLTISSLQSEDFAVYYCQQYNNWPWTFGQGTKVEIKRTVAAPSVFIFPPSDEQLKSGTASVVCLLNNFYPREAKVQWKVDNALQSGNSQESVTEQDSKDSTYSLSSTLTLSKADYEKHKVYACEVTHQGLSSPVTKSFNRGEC
notes: 2+1 monoparatopic format; E269D + S298A + S324N + E333A in both heavy chains
For B3, the “fold gain in affinity vs control” value in test [5] worked out at 0.5 fold; in [6], 1 fold; in test [7], 3 fold; in test [11], 12 fold.

B4: BEAT CD38/CD47-40 (bispecific antibody, human IgG1, kappa)
heavy 1: B1 heavy 1 with D245S, E275D, S304A, E338I, K340A
heavy 2: not shown
light: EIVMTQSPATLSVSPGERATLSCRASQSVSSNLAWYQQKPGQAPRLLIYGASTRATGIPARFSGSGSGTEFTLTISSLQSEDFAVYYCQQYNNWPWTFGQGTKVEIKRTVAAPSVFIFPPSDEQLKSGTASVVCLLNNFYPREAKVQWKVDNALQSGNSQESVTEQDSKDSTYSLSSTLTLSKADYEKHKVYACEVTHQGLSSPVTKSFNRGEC
notes: 2+1 biparatopic format; E269D + S298A + S324N + K334A in both heavy chains
B4: in test [3], the “KD ratio [BEAT/Control IgG1]” value stood at 0.3 ratio. The “fold gain in affinity vs control” value was determined as 0.4 fold in [5], 1 fold in test [6], 4 fold in [7] and 4510 fold in test [11].

B5: BEAT CD38/CD47-34 (bispecific antibody, human IgG1, kappa)
heavy 1: B1 heavy 1 with D245S, E275D, S304A, E338I, K340A
heavy 2: B3 heavy 2 with A580E, K581A
light: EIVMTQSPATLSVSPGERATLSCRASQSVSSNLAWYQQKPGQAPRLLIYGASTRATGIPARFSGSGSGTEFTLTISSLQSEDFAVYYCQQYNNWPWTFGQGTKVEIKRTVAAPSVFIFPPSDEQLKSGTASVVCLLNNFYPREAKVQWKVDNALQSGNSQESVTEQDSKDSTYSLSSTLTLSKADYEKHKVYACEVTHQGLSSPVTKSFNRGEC
notes: 2+1 monoparatopic format; E269D + S298A + S324N + K334A in both heavy chains
Consider B5, for which the “fold gain in affinity vs control” value worked out at 0.4 fold in test [5], 1 fold in test [6], 4 fold in test [7] and 874 fold in test [11].

B6: BEAT CD38/CD47-42 (bispecific antibody, human IgG1, kappa)
heavy 1: B1 heavy 1
heavy 2: B2 heavy 2 with E340K
light: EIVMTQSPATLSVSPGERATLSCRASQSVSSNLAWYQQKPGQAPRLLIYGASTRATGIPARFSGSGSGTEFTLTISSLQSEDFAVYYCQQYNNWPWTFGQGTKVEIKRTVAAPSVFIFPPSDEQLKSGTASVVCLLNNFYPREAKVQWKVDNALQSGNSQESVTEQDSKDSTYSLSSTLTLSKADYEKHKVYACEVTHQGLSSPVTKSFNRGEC
notes: 1+1 format; BEAT (A): S239D + I332E + S324N, BEAT (B): S324N
For the molecule B6, the “KD ratio [BEAT/Control IgG1]” value in [3] is 0.5 ratio. For the same molecule, the “fold gain in affinity vs control” value in test [12] turned out to be 6 fold; in test [13], 14 fold; in [14] it was 11 fold; in [15], 3750 fold.

(Values after patent publication US20240150489A1 (ICHNOS SCIENCES, published 2024).)
